In patent publication US20260209349A1 (IMBIORAY HANGZHOU BIOMEDICINE, published 2026):

Columns and labels:
[1] = target: Human CD33 (human, UniProt P20138 18-259); assay: BLI, affinity to target
[2] = target: T1, Human CLL1 (human, UniProt Q5QGZ9 65-265, limits assumed); assay: BLI, affinity to target
T1 construct: also called C-type lectin-like molecule 1
T1 sequence (looked up): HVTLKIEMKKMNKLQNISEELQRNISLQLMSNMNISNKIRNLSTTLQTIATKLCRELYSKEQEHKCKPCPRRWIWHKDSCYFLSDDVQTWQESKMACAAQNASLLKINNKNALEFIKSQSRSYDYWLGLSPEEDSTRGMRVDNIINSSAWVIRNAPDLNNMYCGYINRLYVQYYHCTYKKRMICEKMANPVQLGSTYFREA

Chain of Human CD33 (P20138 18-259 limits assumed): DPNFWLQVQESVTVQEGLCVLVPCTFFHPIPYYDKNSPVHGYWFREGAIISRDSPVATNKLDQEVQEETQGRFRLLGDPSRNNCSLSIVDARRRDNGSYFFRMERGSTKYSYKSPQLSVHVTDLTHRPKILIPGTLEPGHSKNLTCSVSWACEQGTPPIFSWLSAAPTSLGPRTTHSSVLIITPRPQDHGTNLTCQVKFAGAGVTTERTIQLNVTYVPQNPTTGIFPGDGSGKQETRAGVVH

B1: Anti-CD33-CLL1 bispecific antibody (bispecific antibody, human IgG1, kappa)
heavy 1: not shown
light 1: not shown
heavy 2: not shown
light 2: DIQMTQSPSSLSASVGDRVTITCRASESVDNYGISFMNWFQQKPGKAPKLLIYAASNQGSGVPSRFSGSGSGTDFTLTISSLQPDDFATYYCQQSKEVPWTFGQGTKVEIKRTVAAPSVFIFPPSDEQLKSGTASVVCLLNNFYPREAKVQWKVDNALQSGNSQESVTEQDSKDSTYSLSSTLTLSKADYEKHKVYACEVTHQGLSSPVTKSFNRGEC
notes: Copies '1' follow from this arm exchange; also called anti-CD33/CLL1 antibody
B1 showed a Kd [1] of 5.5 nM and a Kd [2] of 26 nM.
